Patent US20240115722A1 (RUTGERS THE STATE UNIVERSITY OF NEW JERSEY, published 2024)
Where two headings read alike, the source gives them in different places.

Tests used:
[1] = biological target: T1, recombinant human EphA5 (rhEphA5) antigen (human, UniProt P54756 25-573); test: SPR single-cycle kinetics (Biacore T200), IgG from HEK supernatant captured on anti-human IgG CM5 chip, rhEphA5 as analyte, 1:1 fit; parameters: Relative KD: reference not given here
T1 construct: also called human EphA5 (R and D systems, Cat. No. 3036-A5); recombinant EphA5
T1 sequence (P54756 25-573 limits assumed): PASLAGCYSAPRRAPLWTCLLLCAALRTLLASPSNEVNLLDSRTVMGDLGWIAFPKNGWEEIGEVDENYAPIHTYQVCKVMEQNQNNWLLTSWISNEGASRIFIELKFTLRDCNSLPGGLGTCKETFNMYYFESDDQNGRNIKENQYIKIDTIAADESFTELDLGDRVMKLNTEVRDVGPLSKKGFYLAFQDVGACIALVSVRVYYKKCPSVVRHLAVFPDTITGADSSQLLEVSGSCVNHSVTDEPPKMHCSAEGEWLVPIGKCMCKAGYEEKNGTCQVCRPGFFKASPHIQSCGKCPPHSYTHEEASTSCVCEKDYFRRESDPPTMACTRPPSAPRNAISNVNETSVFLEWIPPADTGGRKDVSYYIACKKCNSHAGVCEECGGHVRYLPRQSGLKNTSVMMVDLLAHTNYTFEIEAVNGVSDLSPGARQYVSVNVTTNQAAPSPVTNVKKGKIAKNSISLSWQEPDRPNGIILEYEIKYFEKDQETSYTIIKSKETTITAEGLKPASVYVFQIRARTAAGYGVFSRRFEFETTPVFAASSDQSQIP
Protocol: Kinetic analysis was carried out on a Biacore T200. Each antibody was captured on a CM5 chip coupled with an anti-human IgG using standard amine chemistry before increasing concentrations of antigen were injected and a single off-rate was determined.
Kinetic experiments were performed at 25° C. on a Biacore T200 running Biacore T200 Control software V2.0.1 and Evaluation software V3.0 (Cytiva, Uppsala, Sweden).
HBS-P+ (Cytiva, Uppsala, Sweden), supplemented with 1% BSA (Sigma, Dorset, UK) was used as running buffer as well as for ligand and analyte dilutions. Supernatants containing IgG were diluted in running buffer to 1 μg/mL. At the start of each cycle, antibodies were loaded onto Fc2, Fc3 and Fc4 of an anti-human IgG CM5 sensor chip (Cytiva, Little Chalfont, UK). Ig were captured at a flow rate of […] to give an immobilization level (RL) of ˜60 RU. The surface was then allowed to stabilize.

[2] = biological target: T1, recombinant human EphA5 (rhEphA5) …; test: SPR multi-cycle kinetics (Biacore T200), purified IgG captured on anti-human IgG CM5 chip, recombinant EphA5 as analyte, 1:1 fit
Protocol: HBS-P+(GE Healthcare, Uppsala, Sweden), supplemented with 1% BSA w/v (Sigma, Dorset, UK) was used as running buffer as well as for ligand and analyte dilutions. Purified lead antibodies were diluted to 0.5 μg/mL in running buffer and at the start of each cycle, loaded onto Fc2, Fc3 and Fc4 of an anti-human IgG CM5 sensor chip (GE Healthcare, Little Chalfont, UK). […] The surface was then allowed to stabilize.
Multi-cycle kinetic data was obtained using recombinant EphA5 as the analytes injected at a flow rate of 30 μl/min to minimize any potential mass transfer effects. […] For each concentration, the association phases were monitored for 210 seconds and the dissociation phase was measured for 900 seconds. Regeneration of the sensor chip surface was conducted between cycles using two injections of 3 M MgCl2. Multiple repeats of a blank and of EphA5 were programmed into the kinetic run in order to check the stability of both the surface and analyte over the kinetic cycles.
The signal from the reference channel Fc1 (no IgG captured) was subtracted from that of Fc2, Fc3 and Fc4 to correct for bulk effect and differences in non-specific binding to a reference surface. The signal from each IgG blank run (IgG captured but no antigen) was subtracted to correct for differences in surface stability. The double referenced sensorgrams were fitted with the Langmuir (1:1) binding model where the closeness of fit of the data to the model is evaluated using the Chi square value which describes the deviation between the experimental and fitted (observed and expected) curves. The fitting algorithm seeks to minimize the Chi square value.

[3] = biological target: T2, human EPH receptor A5 (EphA5) expressed on cells (human, UniProt P54756 25-1037); test: flow cytometry on H460 (EphA5+) cells, starting assay concentration 10 µg/mL
T2 construct: Cell line (H460 stably expressing EphA5; HEK-293T transfected with EPHA5 clone or wild-type construct; lung cancer lines with endogenous or variable expression); also called cell-surface EphA5; wild-type target protein
T2 sequence (P54756 25-1037 limits assumed): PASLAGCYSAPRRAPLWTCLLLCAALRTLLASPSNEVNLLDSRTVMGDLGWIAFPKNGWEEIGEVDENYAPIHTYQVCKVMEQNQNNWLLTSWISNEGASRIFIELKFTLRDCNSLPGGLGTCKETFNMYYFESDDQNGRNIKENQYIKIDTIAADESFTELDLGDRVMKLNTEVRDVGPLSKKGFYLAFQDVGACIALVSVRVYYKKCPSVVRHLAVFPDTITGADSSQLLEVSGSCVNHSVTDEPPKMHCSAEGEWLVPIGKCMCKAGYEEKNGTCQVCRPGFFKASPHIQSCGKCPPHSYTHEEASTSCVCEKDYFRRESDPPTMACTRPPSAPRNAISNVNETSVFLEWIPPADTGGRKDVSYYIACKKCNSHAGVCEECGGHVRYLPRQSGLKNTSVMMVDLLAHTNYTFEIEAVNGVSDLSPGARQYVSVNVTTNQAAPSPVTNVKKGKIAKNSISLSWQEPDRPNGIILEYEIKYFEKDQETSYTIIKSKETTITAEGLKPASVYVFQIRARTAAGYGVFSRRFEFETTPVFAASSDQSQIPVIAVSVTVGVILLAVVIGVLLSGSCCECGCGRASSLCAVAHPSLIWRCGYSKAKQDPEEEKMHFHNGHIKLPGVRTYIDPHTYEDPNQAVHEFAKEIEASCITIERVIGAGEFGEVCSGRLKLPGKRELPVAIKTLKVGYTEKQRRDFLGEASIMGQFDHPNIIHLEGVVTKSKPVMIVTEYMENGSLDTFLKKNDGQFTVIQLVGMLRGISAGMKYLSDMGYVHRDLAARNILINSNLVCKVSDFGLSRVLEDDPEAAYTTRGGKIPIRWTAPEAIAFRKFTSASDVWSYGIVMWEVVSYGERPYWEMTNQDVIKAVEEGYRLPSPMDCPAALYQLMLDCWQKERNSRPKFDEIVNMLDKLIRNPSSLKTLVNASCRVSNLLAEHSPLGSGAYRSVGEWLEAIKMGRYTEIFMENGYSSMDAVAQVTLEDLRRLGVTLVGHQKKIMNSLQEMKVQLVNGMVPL
Protocol: Samples were prepared at a starting concentration of 10 μg/ml in FACS buffer and underwent a four-fold seven point serial dilution for testing with H460 cells and a three-fold three point serial dilution for the H226 cells. Cell pellets were resuspended in 100 μl of the serially diluted samples and incubated at 4° C. for 30 minutes. After the incubation, cells were pelleted, washed twice with 100 μl of FACS buffer and resuspended in either Alexa Fluor 647 anti-mouse or anti-human (Thermo Fisher) diluted to 5 μg/ml in FACS buffer. After incubation at 4° C. for 30 minutes, cells were pelleted, washed twice with 100 μl of FACS buffer and resuspended in 200 μl per well 1×BD CellFix solution (BD Pharmingen, Berkshire, UK). Median fluorescence intensity (MFI) was measured using an Attune NxT Flow Cytometer (Thermo Fisher, Loughborough, UK) and 10,000 gated events were acquired per sample. For data analysis, live cell populations were gated based on the forward and side scatter dot plot allowing the Alexa Fluor 647 MFI values to be measured in the RL1 channel.

[4] = biological target: T1, recombinant human EphA5 (rhEphA5) …; test: SPR (Biacore T200), IgG captured on anti-human IgG chip, rhEphA5 as analyte, 1:1 fit; table does not say single- or multi-cycle
[5] = biological target: T3, FCGR1A (human, UniProt P12314); test: Membrane Proteome Array screen, human membrane protein clones expressed in cells, flow cytometry (Table E4: HEK-293T, antibody 20 µg/ml)
T3 construct: clone overexpressed in live cells from an expression plasmid; Labelled point above the threshold in the Membrane Proteome Array plots of both H4K3 and H5K3
T3 sequence (P12314 16-374 limits assumed): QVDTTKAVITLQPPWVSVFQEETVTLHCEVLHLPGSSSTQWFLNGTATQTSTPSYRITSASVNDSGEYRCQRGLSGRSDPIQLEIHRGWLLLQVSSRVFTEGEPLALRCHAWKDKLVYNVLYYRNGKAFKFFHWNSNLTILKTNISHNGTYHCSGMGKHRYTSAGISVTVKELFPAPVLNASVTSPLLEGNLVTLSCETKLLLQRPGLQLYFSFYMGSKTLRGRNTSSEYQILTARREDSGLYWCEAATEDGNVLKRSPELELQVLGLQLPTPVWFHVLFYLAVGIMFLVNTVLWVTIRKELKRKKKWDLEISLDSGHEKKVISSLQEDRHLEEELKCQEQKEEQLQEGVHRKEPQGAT

[6] = biological target: T3, FCGR1A; test: as above; remark: listed apart in the source
[7] = biological target: T2, human EPH receptor A5 (EphA5) expressed …; test: flow cytometry on H460 (EphA5+) cells, goat anti-mouse Alexa Fluor 647 detection

| Kd [1] | Relative KD [1] | koff [1] | Kd [2] | Relative KD [2] | koff [2] | EC50 [3] | Max. Binding (MFI) [3] | Kd [4] | koff [4] | kon [4] | binding result [5] | binding result [6] | EC50 (read off the curve) [7] | Binder |
| --- | --- | --- | --- | --- | --- | --- | --- | --- | --- | --- | --- | --- | --- | --- |
| 1.04 nM | 0.78 | 0.00141 s⁻¹ | 1.04 nM | 0.67 | 0.00128 s⁻¹ | 0.018 µg/mL | 35900 MFI | – | – | – | – | – | – | VH5/VK4 humanized 11C12 antibody (antibody, human IgG1, kappa, V domains shown, Human IgG1/kappa; lead variant, tested as HEK supernatant and as protein purified from CHO; also called H5K4) VH: EVQLVESGGGLVQPGGSLKLSCAASGFTFSTFGIHWVRQAPGKGLEWVAYISGASTTIYYADSVKGRFTISRDNSKNTLYLQMNSLRAEDTAVYYCARYGTSFPYGLDYWGQGTLVTVSS VL: DIVMTQSPDSLAVSLGERATINCKSSQSVDYDGDSYMNWYQQKPGKAPKLLIYGASNLESGIPDRFSGSGSGTDFTLTISRLEPEDAASYYCQQSNEDPFTFGQGTKLEIKR |
| 1.05 nM | 0.79 | 0.0014 s⁻¹ | 1.04 nM | 0.67 | 0.00132 s⁻¹ | 0.017 µg/mL | 37500 MFI | – | – | – | – | – | – | VH4/VK4 humanized 11C12 antibody (antibody, human IgG1, kappa, V domains shown, Human IgG1/kappa; lead variant, tested as HEK supernatant and as protein purified from CHO; also called H4K4) VH: EVQLVESGGGLVQPGGSLKLSCAASGFTFSTFGIHWVRQAPGKGLEWVAYISGASTTIYYADTVKGRFTISRDNSKNTLYLQMNSLRAEDTAVYYCARYGTSFPYGLDYWGQGTLVTVSS VL: DIVMTQSPDSLAVSLGERATINCKSSQSVDYDGDSYMNWYQQKPGKAPKLLIYGASNLESGIPDRFSGSGSGTDFTLTISRLEPEDAASYYCQQSNEDPFTFGQGTKLEIKR |
| 1.33 nM | 1 | 0.00153 s⁻¹ | – | – | – | 0.015 µg/mL | 35400 MFI | 1.56 nM | 0.0015 s⁻¹ | 965000 M⁻¹ s⁻¹ | – | – | – | chimeric VH0/VK0 antibody (murine 11C12 variable regions, human IgG1/kappa constant regions) (antibody, V domains shown, also called chimeric antibody) VH: EVTLKESGGGLVQPGGSRKLSCAASGFTFSTFGIHWVRQAPEKGLEWVAYISGASTTIYYADTVKGRFTISRDNPKNTLFLQMTSLRSEDTAMYYCARYGTSFPYGLDYWGQGTSVTVSS VL: DIVMTQSPGSLAVSLGQRATISCKASQSVDYDGDSYMNWYQQKPGQPPKLLIYGASNLESGIPARFSGSGSGTDFTLNIHPVEEEDAASYYCQQSNEDPFTFGSGTKLEIKR |

More lines, now with the values behind:

| Binder | Kd [1] | Relative KD [1] | koff [1] | Kd [2] | Relative KD [2] | koff [2] | EC50 [3] | Max. Binding (MFI) [3] | Kd [4] | koff [4] | kon [4] | binding result [5] | binding result [6] | EC50 (read off the curve) [7] |
| --- | --- | --- | --- | --- | --- | --- | --- | --- | --- | --- | --- | --- | --- | --- |
| VH3/VK4 humanized 11C12 antibody (antibody, human IgG1, kappa, Human IgG1/kappa; lead variant, tested as HEK supernatant and as protein purified from CHO; also called H3K4) heavy: not shown light: DIVMTQSPDSLAVSLGERATINCKSSQSVDYDGDSYMNWYQQKPGKAPKLLIYGASNLESGIPDRFSGSGSGTDFTLTISRLEPEDAASYYCQQSNEDPFTFGQGTKLEIKRTVAAPSVFIFPPSDEQLKSGTASVVCLLNNFYPREAKVQWKVDNALQSGNSQESVTEQDSKDSTYSLSSTLTLSKADYEKHKVYACEVTHQGLSSPVTKSFNRGEC | 0.956 nM | 0.72 | 0.00128 s⁻¹ | 1.08 nM | 0.69 | 0.00142 s⁻¹ | 0.018 µg/mL | 36500 MFI | – | – | – | – | – | – |
| VH5/VK2 humanized 11C12 antibody (antibody, human IgG1, kappa, V domains shown, Human IgG1/kappa; lead variant, tested as HEK supernatant and as protein purified from CHO; also called H5K2) VH: EVQLVESGGGLVQPGGSLKLSCAASGFTFSTFGIHWVRQAPGKGLEWVAYISGASTTIYYADSVKGRFTISRDNSKNTLYLQMNSLRAEDTAVYYCARYGTSFPYGLDYWGQGTLVTVSS VL: DIVMTQSPDSLAVSLGERATINCKASQSVDYDGDSYMNWYQQKPGKAPKLLIYGASNLESGIPDRFSGSGSGTDFTLTISRLEPEDAASYYCQQSNEDPFTFGQGTKLEIKR | 0.892 nM | 0.67 | 0.00123 s⁻¹ | 0.934 nM | 0.6 | 0.00125 s⁻¹ | 0.017 µg/mL | 36900 MFI | – | – | – | – | – | – |
| VH5/VK3 humanized 11C12 antibody (antibody, human IgG1, kappa, Human IgG1/kappa; lead variant, tested as HEK supernatant and as purified protein; also called H5K3; EPHA5 H5K3) heavy: not shown light: DIVMTQSPDSLAVSLGERATINCKASQSVDYDGDSYMNWYQQKPGKAPKLLIYGASNLESGIPDRFSGSGSGTDFTLTISRLEPEDAAVYYCQQSNEDPFTFGQGTKLEIKRTVAAPSVFIFPPSDEQLKSGTASVVCLLNNFYPREAKVQWKVDNALQSGNSQESVTEQDSKDSTYSLSSTLTLSKADYEKHKVYACEVTHQGLSSPVTKSFNRGEC | 1.03 nM | 0.77 | 0.0014 s⁻¹ | – | – | – | 0.019 µg/mL | 36500 MFI | 1.11 nM | 0.00135 s⁻¹ | 1.21e+06 M⁻¹ s⁻¹ | binds | – | – |
| VH4/VK3 humanized 11C12 antibody (antibody, human IgG1, kappa, Human IgG1/kappa; lead variant, tested as HEK supernatant and as purified protein; also called H4K3; EPHA5 H4K3) heavy: not shown light: DIVMTQSPDSLAVSLGERATINCKASQSVDYDGDSYMNWYQQKPGKAPKLLIYGASNLESGIPDRFSGSGSGTDFTLTISRLEPEDAAVYYCQQSNEDPFTFGQGTKLEIKRTVAAPSVFIFPPSDEQLKSGTASVVCLLNNFYPREAKVQWKVDNALQSGNSQESVTEQDSKDSTYSLSSTLTLSKADYEKHKVYACEVTHQGLSSPVTKSFNRGEC | 1.04 nM | 0.78 | 0.00137 s⁻¹ | 0.937 nM | 0.6 | 0.00139 s⁻¹ | 0.018 µg/mL | 36700 MFI | – | – | – | – | binds | – |
| anti-human EphA5 monoclonal murine antibody 11C12 (antibody, V domains shown, Full murine antibody; also called murine 11C12; mouse 11C12) VH: EVTLKESGGGLVQPGGSRKLSCAASGFTFSTFGIHWVRQAPEKGLEWVAYISGASTTIYYADTVKGRFTISRDNPKNTLFLQMTSLRSEDTAMYYCARYGTSFPYGLDYWGQGTSVTVSS VL: DIVMTQSPGSLAVSLGQRATISCKASQSVDYDGDSYMNWYQQKPGQPPKLLIYGASNLESGIPARFSGSGSGTDFTLNIHPVEEEDAASYYCQQSNEDPFTFGSGTKLEIK | – | – | – | – | – | – | 0.025 µg/mL | 27300 MFI | – | – | – | – | – | ~0.05 µg/mL |
